Experimental data reported in patent publication US20250092134A1.

B1: 21G11A8 (antibody, V domains shown)
VH: EVQLQESGPDLKKPGETVKISCKASGYTFTTYGMNWVKQAPGKGLKWMGYLNTYSGVSTYADDFKGRFAFSLETSANTAYLQINNLRNDDTATYFCARWGNYGAMDYWGQGTSVTVSS
VL: DIKMTQSPLSLPVSLGDQASISCRSSQSIVRSNGFTYLEWYLQKPGQSPELLIYKVSNRFSGVPDRFSGSGSGTDFTLKISRVEAEDLGVYYCFQSSHVPRTFGGGTKLEIK
B2: 28D2E6 (antibody, IgG1, V domains shown)
VH: EVQLQESGPGLVKPSQSLSLTCSVTGYFISSGYYWKWIRQFPGNKLEWMGYISYDGSNNYNPSLKNRISITRDTSKNQFFLKLNSVTAEDTATYYCARGGGYVPVWGTGTTVTVSS
VL: DIQMTQSPLSLPVSLGDQASISCRSSQSIVRSNGNTYLEWYLQKPGQSPKLLIYKVSNRFSGVPDRFSGSGSGTDFTLKISRVEAEDLGVYYCFQSSHVPRTFGGGTKLEIK
B3: 28D2E8 (antibody, IgG1, V domains shown)
VH: EVQLQESGPGLVKPSQSLSLTCSVTGYFISSGYYWKWIRQFPGNKLEWMGYISYDGSNNYNPSLKNRISITRDTSKNQFFLKLNSVTAEDTATYYCARGGGYVPVWGTGTTVTVSS
VL: DIKMTQSPLSLPVSLGDQASISCRSSQSIVRSNGNTYLEWYLQKPGQSPKLLIYKVSNRFSGVPDRFSGSGSGTDFTLKISRVEAEDLGVYYCFQSSHVPRTFGGGTKLEIK
B4: 21G11D5 (antibody, V domains shown)
VH: EVQLQESGPDLKKPGETVKISCKASGYTFTTYGMNWVKQAPGKGLKWMGYLNTYSGVSTYADDFKGRFAFSLETSANTAYLQINNLRNDDTATYFCARWGNYGAMDYWGQGTSVTVSS
VL: DIVMTQSPLSLPVSLGDQASISCRSSQSIVRSNGFTYLEWYLQKPGQSPELLIYKVSNRFSGVPDRFSGSGSGTDFTLKISRVEAEDLGVYYCFQSSHVPRTFGGGTKLEIK
B5: 28C9A5 (antibody, IgG2b, V domains shown)
VH: EVQLQESGAELVRPGTSVKMSCKASGYTFTHYWIDWTKQRPGHGLEWIGNIYPGGGYTNYNENFKGKATLTADKSSSTVFMQFSSLTSDDSAIYYCTRKGYYYGSDWYFDVWGTGTTVTVSS
VL: QIVLSQSPAIMSASPGEKVTMTCSASSSVSYMHWYQQKSGTSPKRWIYDTSKLASGVPARFSGSGSGTSYSLTISSMEAEDAATYYCQQWSSNPYTFGGGTKLEIK
B6: 23A9B10 (antibody, V domains shown)
VH: EVQLQESGPGLVKPSQSLSLTCSVTGYSITSGYYWNWIRQFLGNKLEWMGYITYDGSNNYNPSLKDRISITRDTSKNQFFLNLNSVTTDDTATYYCARGGGYVPVWGTGTTVTVSS
VL: IQMTQSPAFLSVSPGERVSFSCRASQNIGTSIHWYQQRTNGSPRLLIKYASESISGIPSRFSGSGSGTDFTLSINSVESEDFADYYCHQSHNWPTTFGAGTKLELK
B7: 23A9C10 (antibody, V domains shown)
VH: EVQLQESGPGLVKPSQSLSLTCSVTGYSITSGYYWNWIRQFLGNKLEWMGYITYDGSNNYNPSLKDRISITRDTSKNQFFLNLNSVTTDDTATYYCARGGGYVPVWGTGTTVTVSS
VL: DIQMTQSPAFLSVSPGERVSFSCRASQNIGTSIHWYQQRTNGSPRLLIKYASESISGIPSRFSGSGSGTDFTLSINSVESEDFADYYCHQSHNWPTTFGAGTKLELK
B8: 23A9F7 (antibody, V domains shown)
VH: EVQLQESGPGLVKPSQSLSLTCSVTGYSITSGYYWNWIRQFLGNKLEWMGYITYDGSNNYNPSLKDRISITRDTSKNQFFLNLNSVTTDDTATYYCARGGGYVPVWGTGTTVTVSS
VL: DVQMTQSPAFLSVSPGERVSFSCRASQNIGTSIHWYQQRTNGSPRLLIKYASESISGIPSRFSGSGSGTDFTLSINSVESEDFADYYCHQSHNWPTTFGAGTKLELK
B9: 28B2A2 (antibody, IgG2a, V domains shown)
VH: EVQLQESGPELVKPGASVKMSCKASGYTFTDDNMHWVKQSHGKSLEWIGYINPNNNHTNYNQKFKGKATLTVNKSSSTAYMELRSLTSEDSAVYFCARSTVVPFYAMDYWGQGTSVTVSS
VL: DIVMTQSPASLSMAIGEKVTIRCITITDIDDDMNWYQQKPGEPPKLLFSEGNTLRPGVPSRFSSSGYGSDFAFTIENMLSEDVADYYCLQSDNLPLTFGAGTKLELK
B10: 28B2F5 (antibody, IgG2a, V domains shown)
VH: EVQLQESGPELVKPGASVKMSCKASGYTFTDDNMHWVKQSHGKSLEWIGYINPNNNHTNYNQKFKGKATLTVNKSSSTAYMELRSLTSEDSAVYFCARSTVVPFYAMDYWGQGTSVTVSS
VL: DIKMTQSPASLSMAIGEKVTIRCITITDIDDDMNWYQQKPGEPPKLLFSEGNTLRPGVPSRFSSSGYGSDFAFTIENMLSEDVADYYCLQSDNLPLTFGAGTKLELK
B11: 28B2A4 (antibody, IgG2a, V domains shown)
VH: EVQLQESGPELVKPGASVKMSCKASGYTFTDDNMHWVKQSHGKSLEWIGYINPNNNHTNYNQKFKGKATLTVNKSSSTAYMELRSLTSEDSAVYFCARSTVVPFYAMDYWGQGTSVTVSS
VL: DIQMTQSPASLSMAIGEKVTIRCITITDIDDDMNWYQQKPGEPPKLLFSEGNTLRPGVPSRFSSSGYGSDFAFTIENMLSEDVADYYCLQSDNLPLTFGGGTKLEIK
B12: 20A9A9 (antibody, V domains shown)
VH: EVQLQESGPGLVQPSQSLSITCTVSGFSLTSYGVHWVRQSPGKGLEWLGIIWSAGGTDYNAAFISRLSISKDNSKSQIFFKLNSLHADDTAIYFCARGSFYDYGRLDYWGQGTTLTVSS
VL: DIVMTQSHRFMSTSVGDRVSITCKASQDVSTAVAWYQQKPGQSPKLLIYSSSYRYTGVPDRFTGSGSGTDFTFTISSVQAEDLAVYYCQQHYGTPYTFGGGTKLEIQ

Tests used:
[1] = biological target: TCR Vβ17 on T cells of PBMCs; assay: cell-based or functional assay
[2] = biological target: HuTCR Vb17 × Va10.2 (SKW3_1) (human); assay: flow cytometry on SKW3-1 cells
[3] = biological target: HuTCR Vb17 × Va12 (SKW3-2) (human); assay: flow cytometry on SKW3-2 cells
[4] = biological target: HuTCR Vb7/9 × Va10.2 (SKW3-3) (human); assay: flow cytometry on SKW3-3 cells (no Vβ17)
[5] = biological target: TCR Vβ17 on T cells of PBMCs; assay: flow cytometry on PBMCs, percent of cells stained
[6] = biological target: Vβ17 (on cells expressing Vβ17); assay: cell-based or functional assay
Vβ17 (on cells expressing Vβ17), sequence (A0A075B6N1 22-114): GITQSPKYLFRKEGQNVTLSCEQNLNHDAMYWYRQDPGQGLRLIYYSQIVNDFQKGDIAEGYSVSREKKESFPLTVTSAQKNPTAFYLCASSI

TCR Vβ17 on T cells of PBMCs, sequence (A0A075B6N1 22-114): as above
HuTCR Vb17 × Va10.2 (SKW3_1) (human), sequence (A0A075B6N1 22-114, chain 1 of 2): as the sequence (A0A075B6N1 22-114) above
HuTCR Vb17 × Va10.2 (SKW3_1) (human), sequence (A0A087WT01 20-109, chain 2 of 2, further chain): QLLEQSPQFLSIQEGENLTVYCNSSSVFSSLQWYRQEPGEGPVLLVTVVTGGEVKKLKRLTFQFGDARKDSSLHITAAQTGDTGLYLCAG
HuTCR Vb17 × Va12 (SKW3-2) (human), sequence (A0A075B6N1 22-114): as the sequence (A0A075B6N1 22-114) above

| Binder | Proliferation (EC50, ug/ml) [1] [µg/mL] | MFI [2] [MFI] | MFI [3] [MFI] | MFI [4] [MFI] | PBMC binding (%) [5] [%] | Cell Internalization (EC50) [6] [nM] |
| --- | --- | --- | --- | --- | --- | --- |
| B1 | > 5 | 48700 | 38900 | 532 | 2.96 |  |
| B2 | 0.3 | 38000 | 53800 | 441 | 3.27 |  |
| B3 |  | 43600 | 50000 | 452 | 3.3 |  |
| B4 | 2 | 47500 | 56300 | 427 | 3.06 |  |
| B5 | 0.9 | 55200 | 56900 | 438 | 3.27 |  |
| B6 |  | 10100 | 6600 | 507 | 2.74 |  |
| B7 |  | 7660 | 3210 | 458 | 3.2 |  |
| B8 |  | 8600 | 3400 | 466 | 2.32 |  |
| B9 |  | 77400 | 36500 | 434 | 3.13 | < 0.07 |
| B10 | 0.7 | 81800 | 36600 | 438 | 3.2 | < 0.07 |
| B11 | > 5 | 45700 | 53800 | 472 | 2.97 | < 0.07 |
| B12 | > 5 | 39500 | 43100 | 448 | 2.7 |  |
